Measured values as given in patent US20250304643A1 (BAINAN BIOTECH, published 2025).
*1 amine or outer side, *2 acyl side, *3 side chain or, on linkers, in order; H or OH if unused. Where no end group is shown, it is not given here. Side-chain parts run from the residue outwards. [ ]: non-standard residue; d: D form. The star is where a group is joined. C16 diacid = O=C(O)CCCCCCCCCCCCCCC(=O)*; γGlu = O=C(O)[C@H](CCC(=O)[*:2])N[*:1]; Palmitoyl = CCCCCCCCCCCCCCCC(=O)*; Decanoyl = CCCCCCCCCC(=O)*; Aib = CC(C)(N)C(=O)O

B1: Compound no. 6 (peptide)
peptide: Palmitoyl-H[Aib]DGTFISDYSTILD[Aib]LAARDFINWLIQTKITK-OH
SMILES: CCCCCCCCCCCCCCCC(=O)N[C@@H](Cc1c[nH]cn1)C(=O)NC(C)(C)C(=O)N[C@@H](CC(=O)O)C(=O)NCC(=O)N[C@H](C(=O)N[C@@H](Cc1ccccc1)C(=O)N[C@H](C(=O)N[C@@H](CO)C(=O)N[C@@H](CC(=O)O)C(=O)N[C@@H](Cc1ccc(O)cc1)C(=O)N[C@@H](CO)C(=O)N[C@H](C(=O)N[C@H](C(=O)N[C@@H](CC(C)C)C(=O)N[C@@H](CC(=O)O)C(=O)NC(C)(C)C(=O)N[C@@H](CC(C)C)C(=O)N[C@@H](C)C(=O)N[C@@H](C)C(=O)N[C@@H](CCCNC(=N)N)C(=O)N[C@@H](CC(=O)O)C(=O)N[C@@H](Cc1ccccc1)C(=O)N[C@H](C(=O)N[C@@H](CC(N)=O)C(=O)N[C@@H](Cc1c[nH]c2ccccc12)C(=O)N[C@@H](CC(C)C)C(=O)N[C@H](C(=O)N[C@@H](CCC(N)=O)C(=O)N[C@H](C(=O)N[C@@H](CCCCN)C(=O)N[C@H](C(=O)N[C@H](C(=O)N[C@@H](CCCCN)C(=O)O)[C@@H](C)O)[C@@H](C)CC)[C@@H](C)O)[C@@H](C)CC)[C@@H](C)CC)[C@@H](C)CC)[C@@H](C)O)[C@@H](C)CC)[C@@H](C)O
B2: Compound no. 5 (peptide)
peptide: Palmitoyl-H[Aib]DGTFISDYST[Aib]LDNLAARDFINWLIQTKITK-OH
SMILES: CCCCCCCCCCCCCCCC(=O)N[C@@H](Cc1c[nH]cn1)C(=O)NC(C)(C)C(=O)N[C@@H](CC(=O)O)C(=O)NCC(=O)N[C@H](C(=O)N[C@@H](Cc1ccccc1)C(=O)N[C@H](C(=O)N[C@@H](CO)C(=O)N[C@@H](CC(=O)O)C(=O)N[C@@H](Cc1ccc(O)cc1)C(=O)N[C@@H](CO)C(=O)N[C@H](C(=O)NC(C)(C)C(=O)N[C@@H](CC(C)C)C(=O)N[C@@H](CC(=O)O)C(=O)N[C@@H](CC(N)=O)C(=O)N[C@@H](CC(C)C)C(=O)N[C@@H](C)C(=O)N[C@@H](C)C(=O)N[C@@H](CCCNC(=N)N)C(=O)N[C@@H](CC(=O)O)C(=O)N[C@@H](Cc1ccccc1)C(=O)N[C@H](C(=O)N[C@@H](CC(N)=O)C(=O)N[C@@H](Cc1c[nH]c2ccccc12)C(=O)N[C@@H](CC(C)C)C(=O)N[C@H](C(=O)N[C@@H](CCC(N)=O)C(=O)N[C@H](C(=O)N[C@@H](CCCCN)C(=O)N[C@H](C(=O)N[C@H](C(=O)N[C@@H](CCCCN)C(=O)O)[C@@H](C)O)[C@@H](C)CC)[C@@H](C)O)[C@@H](C)CC)[C@@H](C)CC)[C@@H](C)O)[C@@H](C)CC)[C@@H](C)O
B3: Compound no. 43 (peptide)
peptide: {C16 diacid}-H[Aib]EGTFISDYST[Aib]LDNLAAKDFINWLIQTKITKNDWKHNITQ-OH
B4: Compound no. 30 (peptide)
peptide: H[Aib]DGTFISDYK([γGlu-Decanoyl])T[Aib]LDNLAARDFINWLIQTKITD-OH
modifications: N-terminus assumed
SMILES: CCCCCCCCCC(=O)N[C@@H](CCC(=O)NCCCC[C@H](NC(=O)[C@H](Cc1ccc(O)cc1)NC(=O)[C@H](CC(=O)O)NC(=O)[C@H](CO)NC(=O)[C@@H](NC(=O)[C@H](Cc1ccccc1)NC(=O)[C@@H](NC(=O)CNC(=O)[C@H](CC(=O)O)NC(=O)C(C)(C)NC(=O)[C@@H](N)Cc1c[nH]cn1)[C@@H](C)O)[C@@H](C)CC)C(=O)N[C@H](C(=O)NC(C)(C)C(=O)N[C@@H](CC(C)C)C(=O)N[C@@H](CC(=O)O)C(=O)N[C@@H](CC(N)=O)C(=O)N[C@@H](CC(C)C)C(=O)N[C@@H](C)C(=O)N[C@@H](C)C(=O)N[C@@H](CCCNC(=N)N)C(=O)N[C@@H](CC(=O)O)C(=O)N[C@@H](Cc1ccccc1)C(=O)N[C@H](C(=O)N[C@@H](CC(N)=O)C(=O)N[C@@H](Cc1c[nH]c2ccccc12)C(=O)N[C@@H](CC(C)C)C(=O)N[C@H](C(=O)N[C@@H](CCC(N)=O)C(=O)N[C@H](C(=O)N[C@@H](CCCCN)C(=O)N[C@H](C(=O)N[C@H](C(=O)N[C@@H](CC(=O)O)C(=O)O)[C@@H](C)O)[C@@H](C)CC)[C@@H](C)O)[C@@H](C)CC)[C@@H](C)CC)[C@@H](C)O)C(=O)O
B5: Compound no. 37 (peptide)
peptide: H[Aib]DGTFISDYK([γGlu-Palmitoyl])T[Aib]LDNLAARDFINWLIQTKITKNDWKHNITQ-OH
B6: Compound no. 36 (peptide)
peptide: Ac-H[Aib]DGTFISDYSK([γGlu-Palmitoyl])[Aib]LDNLAARDFINWLIQTKITK-OH
SMILES: CCCCCCCCCCCCCCCC(=O)N[C@@H](CCC(=O)NCCCC[C@H](NC(=O)[C@H](CO)NC(=O)[C@H](Cc1ccc(O)cc1)NC(=O)[C@H](CC(=O)O)NC(=O)[C@H](CO)NC(=O)[C@@H](NC(=O)[C@H](Cc1ccccc1)NC(=O)[C@@H](NC(=O)CNC(=O)[C@H](CC(=O)O)NC(=O)C(C)(C)NC(=O)[C@H](Cc1c[nH]cn1)NC(C)=O)[C@@H](C)O)[C@@H](C)CC)C(=O)NC(C)(C)C(=O)N[C@@H](CC(C)C)C(=O)N[C@@H](CC(=O)O)C(=O)N[C@@H](CC(N)=O)C(=O)N[C@@H](CC(C)C)C(=O)N[C@@H](C)C(=O)N[C@@H](C)C(=O)N[C@@H](CCCNC(=N)N)C(=O)N[C@@H](CC(=O)O)C(=O)N[C@@H](Cc1ccccc1)C(=O)N[C@H](C(=O)N[C@@H](CC(N)=O)C(=O)N[C@@H](Cc1c[nH]c2ccccc12)C(=O)N[C@@H](CC(C)C)C(=O)N[C@H](C(=O)N[C@@H](CCC(N)=O)C(=O)N[C@H](C(=O)N[C@@H](CCCCN)C(=O)N[C@H](C(=O)N[C@H](C(=O)N[C@@H](CCCCN)C(=O)O)[C@@H](C)O)[C@@H](C)CC)[C@@H](C)O)[C@@H](C)CC)[C@@H](C)CC)C(=O)O
B7: Compound no. 45 (peptide)
peptide: Palmitoyl-HADGTFISDYSTILDNLAAKDFINWLIQTKITK
B8: Compound no. 1 (peptide)
peptide: Palmitoyl-HADGTFISDYSTILDNLAARDFINWLIQTKITD

target: T1, human glucagon-like peptide-2 receptor (human, UniProt O95838 1-553); experiment: cell-based or functional assay
T1 sequence (looked up): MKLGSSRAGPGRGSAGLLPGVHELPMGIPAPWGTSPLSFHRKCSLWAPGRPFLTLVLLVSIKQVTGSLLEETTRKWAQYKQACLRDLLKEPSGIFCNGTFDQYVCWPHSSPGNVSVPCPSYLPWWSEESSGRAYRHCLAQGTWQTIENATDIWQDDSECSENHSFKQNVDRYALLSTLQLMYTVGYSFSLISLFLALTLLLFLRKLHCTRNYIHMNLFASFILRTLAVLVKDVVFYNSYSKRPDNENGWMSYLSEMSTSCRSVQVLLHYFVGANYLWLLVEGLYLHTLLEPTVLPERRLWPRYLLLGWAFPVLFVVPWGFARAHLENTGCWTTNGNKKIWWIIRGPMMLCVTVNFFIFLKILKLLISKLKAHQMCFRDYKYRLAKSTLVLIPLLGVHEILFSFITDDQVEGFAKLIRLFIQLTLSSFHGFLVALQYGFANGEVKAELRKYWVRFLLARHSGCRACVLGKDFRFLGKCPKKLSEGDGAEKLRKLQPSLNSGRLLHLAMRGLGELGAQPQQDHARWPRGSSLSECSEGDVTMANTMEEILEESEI

Row | Binder | Efficacy GLP-2R [%] | logEC50 GLP-2R
1 | B1 | 91 | –
2 | B2 | 109 | 9
3 | B3 | 73 | –
4 | B4 | 81 | –

target: T2, human glucose-dependent insulinotropic polypeptide receptor (human, UniProt P48546 22-466); experiment: cell-based or functional assay
T2 sequence (looked up): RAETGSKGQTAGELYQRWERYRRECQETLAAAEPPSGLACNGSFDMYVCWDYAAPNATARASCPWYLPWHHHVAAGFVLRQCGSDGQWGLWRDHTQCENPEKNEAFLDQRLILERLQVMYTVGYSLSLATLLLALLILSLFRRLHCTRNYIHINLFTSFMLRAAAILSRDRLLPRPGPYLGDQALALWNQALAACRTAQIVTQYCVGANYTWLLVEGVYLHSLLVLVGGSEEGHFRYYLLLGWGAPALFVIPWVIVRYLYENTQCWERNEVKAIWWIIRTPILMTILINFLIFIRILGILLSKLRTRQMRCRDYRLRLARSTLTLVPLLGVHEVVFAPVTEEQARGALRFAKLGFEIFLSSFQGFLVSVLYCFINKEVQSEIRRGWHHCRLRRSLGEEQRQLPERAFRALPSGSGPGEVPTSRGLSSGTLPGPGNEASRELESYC

Row | Binder | Efficacy GIPR [%] | EC50 (nM) GIPR [nM]
5 | B1 | 108 | –
6 | B5 | 95 | –
7 | B2 | 111 | –
8 | B6 | 92 | 1
9 | B7 | 91 | –
10 | B8 | 96 | –
